Reference: US20250152746A1, “BASE EDITING OF ANGPTL3 AND METHODS OF USING SAME FOR TREATMENT OF DISEASE” (Verve Therapeutics, Inc., priority 2020, published 2025)
Like-named read-outs stand apart in the source and are kept apart here.

B1: GA074: PCSK9 gRNA; protospacer TGCTTACCTGTCTGTGGAAG (SEQ ID NO: 68), splice donor of intron 4 (nucleic acid)
guide: TGCTTACCTGTCTGTGGAAGGTTTTAGAGCTAGAAATAGCAAGTTAAAATAAGGCTAGTCCGTTATCAACTTGAAAAAGTGGCACCGAGTCGGTGCTTTT
modifications: listed as RNA; modified_base 1: mod_base = OTHER; note = 2'-O-Methyl-uridine phosphorothioate; modified_base 2: mod_base = OTHER; note = 2'-O-Methyl-guanosine phosphorothioate; modified_ba
B2: GA148: ANGPTL3 gRNA; protospacer ACAAAACTTCAATGAAACGT (SEQ ID NO: 146) (nucleic acid)
guide: ACAAAACTTCAATGAAACGTGTTTTAGAGCTAGAAATAGCAAGTTAAAATAAGGCTAGTCCGTTATCAACTTGAAAAAGTGGCACCGAGTCGGTGCTTTT
modifications: 2'-O-methyl at 1, 2, other sugars and backbone not given here; further chemistry not fully specified
B3: GA143: ANGPTL3 gRNA; protospacer TTAATTCAACATCGAATAGA (SEQ ID NO: 141) (nucleic acid)
guide: UUAATTCAACATCGAATAGAGTTTTAGAGCTAGAAATAGCAAGTTAAAATAAGGCTAGTCCGTTATCAACTTGAAAAAGTGGCACCGAGTCGGTGCTTTT
modifications: 2'-O-methyl at 1, 2, other sugars, backbone and T or U not given here; further chemistry not fully specified
B4: GA073: PCSK9 gRNA; protospacer GCTTACCTGTCTGTGGAAGC (SEQ ID NO: 67), splice donor of intron 4 (nucleic acid)
guide: GCTTACCTGTCTGTGGAAGCGTTTTAGAGCTAGAAATAGCAAGTTAAAATAAGGCTAGTCCGTTATCAACTTGAAAAAGTGGCACCGAGTCGGTGCTTTT
modifications: listed as RNA; modified_base 1: mod_base = OTHER; note = 2'-O-Methyl-guanosine phosphorothioate; modified_base 2: mod_base = OTHER; note = 2'-O-Methyl-cytidine phosphorothioate; modified_b
B5: GA151: ANGPTL3 gRNA; protospacer GAGAACTACAAATATGGTTT (SEQ ID NO: 149) (nucleic acid)
guide: GAGAACTACAAATATGGTTTGTTTTAGAGCTAGAAATAGCAAGTTAAAATAAGGCTAGTCCGTTATCAACTTGAAAAAGTGGCACCGAGTCGGTGCTTTT
modifications: 2'-O-methyl at 1, 2, other sugars and backbone not given here; further chemistry not fully specified
B6: GA142: ANGPTL3 gRNA; protospacer TGAAAAACTTGAGAGTTGCT (SEQ ID NO: 140) (nucleic acid)
guide: UGAAAAACTTGAGAGTTGCTGTTTTAGAGCTAGAAATAGCAAGTTAAAATAAGGCTAGTCCGTTATCAACTTGAAAAAGTGGCACCGAGTCGGTGCTTTT
modifications: 2'-O-methyl at 1, 2, other sugars, backbone and T or U not given here; further chemistry not fully specified
B7: GA107: ANGPTL3 gRNA; protospacer AGCCAATGGCCTCCTTCAGT (SEQ ID NO: 105) (nucleic acid)
guide: AGCCAATGGCCTCCTTCAGTGTTTTAGAGCTAGAAATAGCAAGTTAAAATAAGGCTAGTCCGTTATCAACTTGAAAAAGTGGCACCGAGTCGGTGCTTTT
modifications: 2'-O-methyl at 1, 2, other sugars and backbone not given here; further chemistry not fully specified
B8: GA145: ANGPTL3 gRNA; protospacer CATTATATTCAGGTAGTCCA (SEQ ID NO: 143) (nucleic acid)
guide: CATTATATTCAGGTAGTCCAGTTTTAGAGCTAGAAATAGCAAGTTAAAATAAGGCTAGTCCGTTATCAACTTGAAAAAGTGGCACCGAGTCGGTGCTTTT
modifications: 2'-O-methyl at 1, 2, other sugars and backbone not given here; further chemistry not fully specified

What was measured:
PCSK9 gene splice site [1] = assay type: cell-based, human; settings: for editing activities, ranking of guides: ABE8.8 mRNA MA002
Experimental: (§1) PCSK9 gRNAs were co-transfected with an equivalent amount of in vitro transcribed ABE8.8 mRNA MA002 (1:1 ratio by weight) into primary hepatocytes and processed as described in detailed methods. In one set of experiments, extracted genomic DNA was analyzed for base editing of the target splice site with next-generation sequencing of PCR amplicons generated around the target sites. Samples were prepared using the Nextera XT DNA library preparation kit (Illumina) according to the manufacturer's protocol. Briefly, two rounds of PCR were performed first to amplify the region of interest and second to add DNA sequences required for next generation sequencing and sample identification to the initial product. The final amplicon was sequenced on the Illumina MiSeq instrument according to the manufacturer's protocol.
(§2) Similarly, three gRNAs (GA098, GA099, GA100) were synthesized matching the 5′-[…]-3′ (SEQ ID NO: 15) (GA091) human protospacer sequence, as well as four gRNAs (GA067/GA101, GA102, GA103, GA347) matching the 5′-[…]-3′ (SEQ ID NO: 14) (GA067) cynomolgus protospacer sequence, but with more extensive chemical modifications of various kinds (Table 1). GA066 and GA095 contain the same chemical composition and modification pattern, as do GA067 and GA101 with one another. […] Each of the gRNAs described in Table 8, with an equivalent amount of in vitro transcribed ABE8.8 mRNA MA002 (1:1 ratio by weight), were co-transfected into primary human hepatocytes and primary cynomolgus hepatocytes via MessengerMax reagent, using various dilutions to assess for editing activity at different concentrations of test article. Three days after transfection, genomic DNA was harvested from the hepatocytes, and then assessed for base editing of the target splice site with next-generation sequencing.
Modifications and/or truncations to either the spacer or tracr portion of the gRNA was assessed by alteration of the GA066 spacer (5′-[…]-3′ (SEQ ID NO: 13)) (Table 12). […] Each of the gRNAs with an equivalent amount of in vitro transcribed ABE8.8 mRNA (1:1 ratio by weight) were co-transfected into primary human hepatocytes and primary cynomolgus hepatocytes and processed as described in detailed methods. […]

PCSK9 gene splice site [2] = assay type: cell-based, cynomolgus monkey
Experimental: as §1, §2
Modifications and/or truncations to either the spacer or tracr portion of the gRNA was assessed by alteration of the GA066 spacer (5′-[…]-3′ (SEQ ID NO: 13)) (Table 12). […] Each of the gRNAs with an equivalent amount of in vitro transcribed ABE8.8 mRNA (1:1 ratio by weight) were co-transfected into primary human hepatocytes and primary cynomolgus hepatocytes and processed as described in detailed methods.
Lipid nanoparticles containing ABE8.8 mRNA and a gRNA matching the human/cynomolgus 5′-[…]-3′ (SEQ ID NO: 13) sequence (GA066) that targets the splice donor at the 5′ end of PCSK9 intron 1 were formulated at a 1:1 ratio by weight. The LNPs were administered to primary human hepatocytes and primary cynomolgus hepatocytes, using various dilutions to assess for editing activity at different concentrations of test article. LNP containing Cas9 mRNA and a gRNA matching a protospacer sequence in another gene, ANGPTL3, as a positive control was used for these experiments.
Plating, culturing, and transfection of primary hepatocytes. Primary human liver hepatocytes (PHH) and primary cynomolgus liver hepatocytes (PCH) from BioIVT were cultured per the manufacturer's protocol. Briefly, primary human hepatocytes and primary cyno hepatocytes were obtained as frozen aliquots from BioIVT.

ANGPTL3 gene [3] = test: ANGPTL3 gRNA/SpCas9 editing in primary human hepatocytes (Table 3); assay type: cell-based
Experimental: (§3) In set of experiments, PCSK9 gRNAs were co-transfected with an equivalent amount (1:1 ratio by weight) of in vitro transcribed commercially available SpCas9 mRNA MS002 purchased from TriLink Biotechnologies into primary human hepatocytes at 2500, 500, or 100 ng/RNA/mL and processed as described in detailed methods. Extracted genomic DNA was analyzed for gene editing at the target site with next-generation sequencing of PCR amplicons generated around the target sites. Samples were prepared using the Nextera XT DNA library preparation kit (Illumina) according to the manufacturer's protocol. Briefly, two rounds of PCR were performed first to amplify the region of interest and second to add DNA sequences required for next generation sequencing and sample identification to the initial product. The final amplicon was sequenced on the Illumina MiSeq instrument according to the manufacturer's protocol. A wide range of editing activities (Table 2) were observed. In a second set of experiments, ANGPTL3 gRNAs were co-transfected with an equivalent amount of in vitro transcribed SpCas9 mRNA (1:1 ratio by weight) into primary human hepatocytes and processed and analyzed similarly (Table 3).
(§4) Plating, culturing, and transfection of primary hepatocytes. Primary human liver hepatocytes (PHH) and primary cynomolgus liver hepatocytes (PCH) from BioIVT were cultured per the manufacturer's protocol. Briefly, primary human hepatocytes and primary cyno hepatocytes were obtained as frozen aliquots from BioIVT. Four lots of primary human hepatocytes, each derived from a de-identified individual donor, were used for the experiments: STL (main donor) was used for all experiments, including screening experiments and off-target experiments; HLY, JLP, and TLY were used for off-target experiments. The HFG lot of primary cyno hepatocytes were used for experiments. Following the manufacturer's instructions, cells were thawed and rinsed prior to plating in 24-well plates that had been coated with bovine collagen overnight, with a density of approximate 350,000 cells/well in INVITROGRO hepatocyte medium supplemented with TORPEDO antibiotic mix (BioIVT). The cells were thawed and resuspended in hepatocyte thawing medium followed by centrifugation at 100 g for 10 min at 4° C. The supernatant was discarded, and the pelleted cells resuspended in hepatocyte plating medium. Each vial contains approximately 5 million cells that were used for plating one 24-well plate. Plated cells were allowed to settle and adhere for 4-6 h in a tissue culture incubator at 37° C. under 5% CO2 atmosphere. After incubation, cells were checked for monolayer formation. The incubating media were then replaced with fresh hepatocyte maintenance media (complete INVITROGRO medium obtained from BioIVT, the cell line provider). The cells thus became ready for transfection. Each of the gRNAs were co-transfected with an equivalent amount of in vitro transcribed ABE8.8 mRNA (1:1 ratio by molecular weight) into primary human hepatocytes via MessengerMax reagent (Lipofectamine), using various dilutions to assess for editing activity at different concentrations of test article. MessengerMAX from Thermo Fisher is used for transfection. Solution A: desired amount of guide RNA is mixed with 1:1 wt ratio of mRNA in OptiMEM. Solution B: MessengerMAX in OptiMEM. After mixing solutions A and B, the mixture was incubated at room temperature for 20 min. 60 μL of the incubated solution was added dropwise to each cell wells. For protospacer sequences that were a perfect match to the corresponding cynomolgous monkey PCSK9 or ANGPTL3 gene sequence, each gRNA was also co-transfected with an equivalent amount of ABE8.8 mRNA (1:1 ratio by molecular weight) into primary cynomolgous hepatocytes, and followed the same transfection protocol. The cells were then allowed to remain at 37° C. for 3 days. […]

ANGPTL3 gene [4] = test: ANGPTL3 gRNA/SpCas9 editing in primary cynomolgus hepatocytes (Table 3); assay type: cell-based, cynomolgus monkey
Experimental: as §3, §4

Molecule	Human Primary Hepatocyte Editing % 100 ng/ml (ANGPTL3 gene [3]) [%]	Human Primary Hepatocyte Editing % 500 ng/mL (ANGPTL3 gene [3]) [%]	Cyno Primary Hepatocyte Editing % 100 ng/mL (ANGPTL3 gene [4]) [%]	Cyno Primary Hepatocyte Editing % 500 ng/ml (ANGPTL3 gene [4]) [%]	also measured
B1					Human Primary Hepatocytes-splice site editing % 1250 ng/mL (PCSK9 gene splice site [1]): 11.6%; Human Primary Hepatocytes-splice site editing % 2500 ng/mL (PCSK9 gene splice site [1]): 18.8%; Human Primary Hepatocytes-splice site editing % 5000 ng/mL (PCSK9 gene splice site [1]): 23.8%; editing activities, ranking of guides (PCSK9 gene splice site [1]): performing the best; Cynomolgous Primary Hepatocytes-splice site editing % 1250 ng/mL (PCSK9 gene splice site [2]): 17.5%; Cynomolgous Primary Hepatocytes-splice site editing % 2500 ng/mL (PCSK9 gene splice site [2]): 20.1%; Cynomolgous Primary Hepatocytes-splice site editing % 5000 ng/mL (PCSK9 gene splice site [2]): 18.7%
B2	12.01	31.67	28.57	69.75	
B3	9.30	19.36	14.84	21.16	
B4					Human Primary Hepatocytes-splice site editing % 1250 ng/mL (PCSK9 gene splice site [1]): 11.2%; Human Primary Hepatocytes-splice site editing % 2500 ng/mL (PCSK9 gene splice site [1]): 17.5%; Human Primary Hepatocytes-splice site editing % 5000 ng/mL (PCSK9 gene splice site [1]): 25.4%; editing activities, ranking of guides (PCSK9 gene splice site [1]): performing the best; Cynomolgous Primary Hepatocytes-splice site editing % 1250 ng/mL (PCSK9 gene splice site [2]): 24.7%; Cynomolgous Primary Hepatocytes-splice site editing % 2500 ng/mL (PCSK9 gene splice site [2]): 23.2%; Cynomolgous Primary Hepatocytes-splice site editing % 5000 ng/mL (PCSK9 gene splice site [2]): 29.2%
B5	10.56	31.88	11.32	38.91	
B6					Human Primary Hepatocyte Editing % 100 ng/ml (ANGPTL3 gene [3]; 100 ng/ml, SpCas9 mRNA 1:1 by weight): 10.50%; Human Primary Hepatocyte Editing % 500 ng/mL (ANGPTL3 gene [3]; 500 ng/mL, SpCas9 mRNA 1:1 by weight): 24.90%; Cyno Primary Hepatocyte Editing % 100 ng/mL (ANGPTL3 gene [4]; 100 ng/mL, SpCas9 mRNA 1:1 by weight): 20.09%; Cyno Primary Hepatocyte Editing % 500 ng/ml (ANGPTL3 gene [4]; 500 ng/ml, SpCas9 mRNA 1:1 by weight): 27.59%
B7	3.72	5.09	32.58		
B8	12.55	26.33	18.77	30.34	
